Literature values, collected in publication PMC3334866.

Target: Vinculin D1 (UniProt P18206)
Sequence of UniProt P18206 (P18206 1-258): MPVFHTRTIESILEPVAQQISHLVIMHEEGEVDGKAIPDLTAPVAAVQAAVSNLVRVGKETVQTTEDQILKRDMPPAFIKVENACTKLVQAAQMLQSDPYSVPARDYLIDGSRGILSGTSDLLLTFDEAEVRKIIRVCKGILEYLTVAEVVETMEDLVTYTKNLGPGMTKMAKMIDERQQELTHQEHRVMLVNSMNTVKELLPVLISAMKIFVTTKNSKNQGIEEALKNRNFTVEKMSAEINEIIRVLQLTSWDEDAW

IpaA peptide (from UniProt P18010)
Kd: < 1 nM
